Target: C3b
Assay: SPR

B1: TriFu_no_linker (triple fusion complement inhibitor without polyglycine linker between DAF and FH) (other)
chain: DCGLPPDVPNAQPALEGRTSFPEDTVITYKCEESFVKIPGEKDSVICLKGSQWSDIEEFCNRSCEVPTRLNSASLKQPYITQNYFPVGTVVEYECRPGYRREPSLSPKLTCLQNLKWSTAVEFCKKKSCPNPGEIRNGQIDVPGGILFGATISFSCNTGYKLFGSTSSFCLISGSSVQWSDPLPECREIYCPAPPQIDNGIIQGERDHYGYRQSVTYACNKGFTMIGEHSIYCTVNNDEGEWSGPPPECRGGKCGPPPPIDNGDITSFPLSVYAPASSVEYQCQNLYQLEGNKRITCRNGQWSEPPKCLHPCVISREIMENYNIALRWTAKQKLYSRTGESVEFVCKRGYRLSSRSHTLRTTCWDGKLEYPTCAKRGHCQAPDHFLFAKLKTQTNASDFPIGTSLKYECRPEYYGRPFSITCLDNLVWSSPKDVCKRKSCKTPPDPVNGMVHVITDIQVGSRINYSCTTGHRLIGHSSAECILSGNTAHWSTKPPICQRIPCGLPPTIANGDFISTNRENFHYGSVVTYRCNLGSRGRKVFELVGEPSIYCTSNDDQVGIWSGPAPQCII
B1 was tested, and the Kd was 98 nM.

Source: article PMC11065761 (The Journal of Biological Chemistry, 2024)
